One substance from doi:10.1101/2020.02.26.966614 can be followed below.

For this experiment, the target named is MICAL1-oxidized actin filaments (alpha-skeletal actin, rabbit) (rabbit) (UniProt P68135). Put plainly: single-filament microfluidics with fluorescence microscopy.

In turn, “eGFP-S3D-cofilin-1 (from UniProt P18760 1-166) (natural protein)” gave a growth rate of single cofilin-1 domains, normalized by the cofilin concentration of 10 sub/s/µM.
